Measurements from patent US20240158475A1.

B1: Mutation 1-23 (antibody, V domains shown)
VH: EVQLQQSGTELVRPGALVKLSCKASGFNIKDYYLHWVKQRPRQGLEWIGWIDPENGKTIYDPKFQDKASITSDTSTNTAYLQLRSLTSEDTAVYYCVTAYFRFVYWGQGTLVTVSA
VL: QIVLTQSPAIMSAFPGERVTMTCSASSSVRYMYWHQQKPGSSPRLLIYDTSNVASGVPVRFSGSGSGTSYSLTISRDEAMDAATYYCQQWSSTPRTFGGGTKLEIKR
B2: Mutation 1-33 (antibody, V domains shown)
VH: EVQLQQSGTELVRPGALVKLSCKASGFNIKDYYVHWVKQRPRQGLEWIGWIDPENGKTLYDPKFQDKASITSDTSTNTAYLQLRSLTSEDTAVYYCVTAYYRFVYWGQGTLVTVSA
VL: QIVLTQSPAIMSAFPGERVTMTCSASTSVRYMYWHQQKPGSSPRLLIYDTSNIASGVPVRFSGSGSGTSYSLTISRDEAMDAATYYCQQWSSYPRTFGGGTKLEIKR
B3: Mutation 1-28 (antibody, V domains shown)
VH: EVQLQQSGTELVRPGALVKLSCKASGFNIKDYYIHWVKQRPRQGLEWIGWIDPENGKTLYDPKFQDKASITSDTSTNTAYLQLRSLTSEDTAVYYCVSAYFRFVYWGQGTLVTVSA
VL: QIVLTQSPAIMSAFPGERVTMTCSASTSVRYMYWHQQKPGSSPRLLIYDTSNLASGVPVRFSGSGSGTSYSLTISRDEAMDAATYYCQQWSSYPRTFGGGTKLEIKR
B4: Mutation 1-25 (antibody, V domains shown)
VH: EVQLQQSGTELVRPGALVKLSCKASGFNIKDYYIHWVKQRPRQGLEWIGWIDPENGKTIYDPKFQDKASITSDTSTNTAYLQLRSLTSEDTAVYYCVTAYFRFVYWGQGTLVTVSA
VL: QIVLTQSPAIMSAFPGERVTMTCSASSSVRYMYWHQQKPGSSPRLLIYDTSNLASGVPVRFSGSGSGTSYSLTISRDEAMDAATYYCQQWSSTPRTFGGGTKLEIKR
B5: Mutation 1-29 (antibody, V domains shown)
VH: EVQLQQSGTELVRPGALVKLSCKASGFNIKDYYLHWVKQRPRQGLEWIGWIDPENGKTIYDPKFQDKASITSDTSTNTAYLQLRSLTSEDTAVYYCVSAYYRFVYWGQGTLVTVSA
VL: QIVLTQSPAIMSAFPGERVTMTCSASTSVRYMYWHQQKPGSSPRLLIYDTSNVASGVPVRFSGSGSGTSYSLTISRDEAMDAATYYCQQWSSYPRTFGGGTKLEIKR
B6: Mutation 1-27 (antibody, V domains shown)
VH: EVQLQQSGTELVRPGALVKLSCKASGFNIKDYYVHWVKQRPRQGLEWIGWIDPENGKTIYDPKFQDKASITSDTSTNTAYLQLRSLTSEDTAVYYCVSAYVRFVYWGQGTLVTVSA
VL: QIVLTQSPAIMSAFPGERVTMTCSASSSVRYMYWHQQKPGSSPRLLIYDTSNLASGVPVRFSGSGSGTSYSLTISRDEAMDAATYYCQQWSSTPRTFGGGTKLEIKR
B7: Mutation 1-36 (antibody, V domains shown)
VH: EVQLQQSGTELVRPGALVKLSCKASGFNIKDYYVHWVKQRPRQGLEWIGWIDPENGKTIYDPKFQDKASITSDTSTNTAYLQLRSLTSEDTAVYYCVTAYFRFVYWGQGTLVTVSA
VL: QIVLTQSPAIMSAFPGERVTMTCSASSSVRYMYWHQQKPGSSPRLLIYDTSNLASGVPVRFSGSGSGTSYSLTISRDEAMDAATYYCQQWSSFPRTFGGGTKLEIKR
B8: Mutation 1-24 (antibody, V domains shown)
VH: EVQLQQSGTELVRPGALVKLSCKASGFNIKDYYVHWVKQRPRQGLEWIGWIDPENGKTLYDPKFQDKASITSDTSTNTAYLQLRSLTSEDTAVYYCVTAYVRFVYWGQGTLVTVSA
VL: QIVLTQSPAIMSAFPGERVTMTCSASTSVRYMYWHQQKPGSSPRLLIYDTSNIASGVPVRFSGSGSGTSYSLTISRDEAMDAATYYCQQWSSYPRTFGGGTKLEIKR
B9: Mutation 1-32 (antibody, V domains shown)
VH: EVQLQQSGTELVRPGALVKLSCKASGFNIKDYYLHWVKQRPRQGLEWIGWIDPENGKTIYDPKFQDKASITSDTSTNTAYLQLRSLTSEDTAVYYCVTAYFRFVYWGQGTLVTVSA
VL: QIVLTQSPAIMSAFPGERVTMTCSASSSVRYMYWHQQKPGSSPRLLIYDTSNIASGVPVRFSGSGSGTSYSLTISRDEAMDAATYYCQQWSSTPRTFGGGTKLEIKR
B10: Mutation 1-35 (antibody, V domains shown)
VH: EVQLQQSGTELVRPGALVKLSCKASGFNIKDYYLHWVKQRPRQGLEWIGWIDPENGKTLYDPKFQDKASITSDTSTNTAYLQLRSLTSEDTAVYYCVSAYYRFVYWGQGTLVTVSA
VL: QIVLTQSPAIMSAFPGERVTMTCSASTSVRYMYWHQQKPGSSPRLLIYDTSNVASGVPVRFSGSGSGTSYSLTISRDEAMDAATYYCQQWSSTPRTFGGGTKLEIKR
B11: Mutation 1-34 (antibody, V domains shown)
VH: EVQLQQSGTELVRPGALVKLSCKASGFNIKDYYIHWVKQRPRQGLEWIGWIDPENGKTIYDPKFQDKASITSDTSTNTAYLQLRSLTSEDTAVYYCVSAYVRFVYWGQGTLVTVSA
VL: QIVLTQSPAIMSAFPGERVTMTCSASSSVRYMYWHQQKPGSSPRLLIYDTSNLASGVPVRFSGSGSGTSYSLTISRDEAMDAATYYCQQWSSFPRTFGGGTKLEIKR
B12: Mutation 1-26 (antibody, V domains shown)
VH: EVQLQQSGTELVRPGALVKLSCKASGFNIKDYYLHWVKQRPRQGLEWIGWIDPENGKTLYDPKFQDKASITSDTSTNTAYLQLRSLTSEDTAVYYCVTAYYRFVYWGQGTLVTVSA
VL: QIVLTQSPAIMSAFPGERVTMTCSASSSVRYMYWHQQKPGSSPRLLIYDTSNVASGVPVRFSGSGSGTSYSLTISRDEAMDAATYYCQQWSSYPRTFGGGTKLEIKR
B13: Mutation 1-30 (antibody, V domains shown)
VH: EVQLQQSGTELVRPGALVKLSCKASGFNIKDYYVHWVKQRPRQGLEWIGWIDPENGKTIYDPKFQDKASITSDTSTNTAYLQLRSLTSEDTAVYYCVTAYFRFVYWGQGTLVTVSA
VL: QIVLTQSPAIMSAFPGERVTMTCSASSSVRYMYWHQQKPGSSPRLLIYDTSNIASGVPVRFSGSGSGTSYSLTISRDEAMDAATYYCQQWSSYPRTFGGGTKLEIKR
B14: Mutation 1-31 (antibody, V domains shown)
VH: EVQLQQSGTELVRPGALVKLSCKASGFNIKDYYIHWVKQRPRQGLEWIGWIDPENGKTLYDPKFQDKASITSDTSTNTAYLQLRSLTSEDTAVYYCVTAYVRFVYWGQGTLVTVSA
VL: QIVLTQSPAIMSAFPGERVTMTCSASTSVRYMYWHQQKPGSSPRLLIYDTSNLASGVPVRFSGSGSGTSYSLTISRDEAMDAATYYCQQWSSFPRTFGGGTKLEIKR

The binders below were run against DN-III quality control recombinant protein (produced by Fapon Biotech InC.) (dengue virus) (assay: BLI, AMC sensor, antibody captured).

**Q.** How did the Kd turn out when B1 was run?
**A.** Its Kd is 0.46 nM.

**Q.** What about the koff of the same binder?
**A.** The koff was 3.86e-05 s⁻¹.

**Q.** What about the kon of the same binder?
**A.** Its kon is 44600 M⁻¹ s⁻¹.

**Q.** B2 was tested. Which Kd did it give?
**A.** Its Kd is 0.99 nM.

**Q.** What about the koff of the same binder?
**A.** Its koff is 4.68e-05 s⁻¹.

**Q.** What about the kon of the same binder?
**A.** Its kon is 47500 M⁻¹ s⁻¹.

**Q.** B3 was tested. Which Kd did it give?
**A.** Its Kd is 0.78 nM.

**Q.** What about the koff of the same binder?
**A.** Its koff is 2.89e-05 s⁻¹.

**Q.** What about the kon of the same binder?
**A.** The kon was 37000 M⁻¹ s⁻¹.

**Q.** Which Kd does the source give for B4 here?
**A.** Its Kd is 1.09 nM.

**Q.** What about the koff of the same binder?
**A.** Its koff is 1.78e-05 s⁻¹.

**Q.** And the kon?
**A.** Its kon is 33900 M⁻¹ s⁻¹.

**Q.** Which results are given for B5?
**A.** Kd: 0.9 nM; koff: 3.23e-05 s⁻¹; kon: 35700 M⁻¹ s⁻¹

**Q.** Which Kd does the source give for B6 here?
**A.** The Kd was 0.121 nM.

**Q.** What about the koff of the same binder?
**A.** Its koff is 3.66e-05 s⁻¹.

**Q.** What about the kon of the same binder?
**A.** Its kon is 303000 M⁻¹ s⁻¹.

**Q.** Which Kd does the source give for B7 here?
**A.** Its Kd is 0.34 nM.

**Q.** And the koff?
**A.** Its koff is 1.53e-05 s⁻¹.

**Q.** And the kon?
**A.** The kon was 44900 M⁻¹ s⁻¹.

**Q.** B8 was tested. Which Kd did it give?
**A.** Its Kd is 0.53 nM.

**Q.** And the koff?
**A.** The koff was 1.74e-05 s⁻¹.

**Q.** What about the kon of the same binder?
**A.** Its kon is 37700 M⁻¹ s⁻¹.

**Q.** How did the Kd turn out when B9 was run?
**A.** Its Kd is 0.35 nM.

**Q.** And the koff?
**A.** Its koff is 1.23e-05 s⁻¹.

**Q.** And the kon?
**A.** Its kon is 35200 M⁻¹ s⁻¹.

**Q.** What does the source list for B10?
**A.** Kd: 1.04 nM; koff: 4.35e-05 s⁻¹; kon: 41900 M⁻¹ s⁻¹

**Q.** Which results are given for B11?
**A.** Kd: 0.44 nM; koff: 1.34e-05 s⁻¹; kon: 30600 M⁻¹ s⁻¹

**Q.** What does the source list for B12?
**A.** Kd: 0.111 nM; koff: 3.47e-05 s⁻¹; kon: 312000 M⁻¹ s⁻¹

**Q.** For B13, which Kd is on record?
**A.** The Kd was 0.95 nM.

**Q.** And the koff?
**A.** Its koff is 3.56e-05 s⁻¹.

**Q.** What about the kon of the same binder?
**A.** Its kon is 37600 M⁻¹ s⁻¹.

**Q.** How did the Kd turn out when B14 was run?
**A.** The Kd was 0.115 nM.

**Q.** And the koff?
**A.** Its koff is 3.94e-05 s⁻¹.

**Q.** And the kon?
**A.** Its kon is 344000 M⁻¹ s⁻¹.
